Source: US20180099041A1

Experiments:
[1] = molecular target: gp160 clone 108051_005 Q655R (HIV-1)
[2] = molecular target: gp160 clone 108069_005 Q655R (HIV-1)

In the case of “broadly neutralizing monoclonal antibody 2F5”, the IC50 (neutralization of pseudovirus infection) (108060_022 Q655R (HIV-1)) was 0.093 µg/mL, the IC50 (neutralization of pseudovirus infection) (108060_024 R655Q (HIV-1)) was 3.43 µg/mL and the IC50 (neutralization of pseudovirus infection) [1] was 0.343 µg/mL. For the same substance, the IC50 (neutralization of pseudovirus infection) [2] was 0.052 µg/mL.

monoclonal antibody 2G12 was tested, and the IC50 (neutralization of pseudovirus infection) (108060_022 Q655R (HIV-1)) was greater than 20 µg/mL, the IC50 (neutralization of pseudovirus infection) (108060_024 R655Q (HIV-1)) was greater than 20 µg/mL and the IC50 (neutralization of pseudovirus infection) [1] was greater than 20 µg/mL. For the same substance, the IC50 (neutralization of pseudovirus infection) [2] was greater than 20 µg/mL.

In the case of “broadly neutralizing, CD4 blocking monoclonal antibody b12”, the IC50 (neutralization of pseudovirus infection) (108060_022 Q655R (HIV-1)) was greater than 20 µg/mL, the IC50 (neutralization of pseudovirus infection) (108060_024 R655Q (HIV-1)) was greater than 20 µg/mL and the IC50 (neutralization of pseudovirus infection) [1] was greater than 20 µg/mL. For the same substance, the IC50 (neutralization of pseudovirus infection) [2] was greater than 20 µg/mL.

Substance “broadly neutralizing monoclonal antibody 4E10” has an IC50 (neutralization of pseudovirus infection) (108060_022 Q655R (HIV-1)) of 0.156 µg/mL, an IC50 (neutralization of pseudovirus infection) (108060_024 R655Q (HIV-1)) of 6.55 µg/mL and an IC50 (neutralization of pseudovirus infection) [1] of 1.31 µg/mL. It also gave an IC50 (neutralization of pseudovirus infection) [2] of 0.044 µg/mL.

“CD4-IgG (from UniProt P01730) (Fc fusion)” gave an IC50 (neutralization of pseudovirus infection) (108060_022 Q655R (HIV-1)) of 0.161 µg/mL, an IC50 (neutralization of pseudovirus infection) (108060_024 R655Q (HIV-1)) greater than 20 µg/mL and an IC50 (neutralization of pseudovirus infection) [1] of 5.21 µg/mL. The IC50 (neutralization of pseudovirus infection) [2] was 1.08 µg/mL.

With enfuvirtide (peptide) the IC50 (neutralization of pseudovirus infection) (108060_022 Q655R (HIV-1)) was 0.004 µg/mL, the IC50 (neutralization of pseudovirus infection) (108060_024 R655Q (HIV-1)) was 0.13 µg/mL and the IC50 (neutralization of pseudovirus infection) [1] was 0.036 µg/mL. It also gave an IC50 (neutralization of pseudovirus infection) [2] of 0.011 µg/mL.
